Results as given in patent publication US20160129086A1.

Target: CD20 on human lymphoma cells (Daudi, Jeko-1) (UniProt P11836)
Assay: cell-based or functional assay

Sequence of CD20 on human lymphoma cells (Daudi, Jeko-1) (P11836 whole entry): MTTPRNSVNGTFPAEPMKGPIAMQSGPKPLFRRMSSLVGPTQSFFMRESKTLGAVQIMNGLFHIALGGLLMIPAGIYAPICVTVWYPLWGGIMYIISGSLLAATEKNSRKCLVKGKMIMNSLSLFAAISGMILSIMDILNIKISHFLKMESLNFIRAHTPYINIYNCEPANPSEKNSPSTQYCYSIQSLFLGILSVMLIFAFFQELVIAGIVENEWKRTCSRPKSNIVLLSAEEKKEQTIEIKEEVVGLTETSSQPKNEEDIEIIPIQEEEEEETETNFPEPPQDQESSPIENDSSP

EC50, high-concentration response, in vitro proliferation of Jeko-1 cells	EC50, low-concentration response, in vitro proliferation of Jeko-1 cells	EC50, in vitro proliferation of Jeko-1 cells	Substance
0.85 nM	0.00097 nM	–	20-2b (from UniProt P01563 24-188)
–	–	1.5 nM	veltuzumab (antibody)
